For this test, the target named is eukaryotic translation initiation factor eIF4E (endogenous, in lysates of human cell lines) (UniProt P06730). The test can be described thus: immunoprecipitation of eIF4E from nuclear lysates.
eukaryotic translation initiation factor eIF4E (endogenous, in lysates of human cell lines), sequence (P06730 2-217 limits assumed): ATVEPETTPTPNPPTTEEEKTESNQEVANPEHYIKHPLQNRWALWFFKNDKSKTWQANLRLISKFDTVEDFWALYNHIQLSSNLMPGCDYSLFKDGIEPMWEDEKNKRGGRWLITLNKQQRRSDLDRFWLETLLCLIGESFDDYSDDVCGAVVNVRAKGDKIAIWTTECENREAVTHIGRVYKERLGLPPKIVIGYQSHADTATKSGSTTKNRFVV

“mouse monoclonal anti-eIF4E Ab (BD Transduction Laboratories) (antibody)”: the efficiency of IP was less than 80%.

These data come from US20140199692A1.
